Laboratory results published in the DeepSol protein solubility set.

assay: soluble on expression in E. coli; label from the status in PepcDB or PDB records

Sequence	soluble on expression in E. coli
MYYAIPTVVVSECLGFSACRYNGDIIRNSFVSRLGEFARLVPVCPEVAIGLGVPRETVRLVKRGEERRLVQSSTNRDWTREMNEFATSFFGQVGEVDGFILKGRSPTCGIKDVRVYDDEESGMVVEKGVGLFAEHVFRRFPNAAIEEEGRLTNAAIREHFLTKVFALALFREVKAKRSMKALVQFHSEHKYLFMAYSQTWLKQLGRLVANRDRLPVEQVLEAYGQGLHALFARAPQRRSHVNVCQHLMGYFKKEMSAKEKQYVLELLAQYRAQQLPLSSVASVLKSWAIREENDYLLQQRYFAPYPPALLDVRDSGKGREKAV	not soluble
MSLKITADEALTLSKSNGSDIFLLCSFANKLREKFNGNHVDLCSVINAKSGNCSEDCAFCAQSAHHKANVSCYPLLNEDKILEMAKQREAYGARHCDIATSGLGYTGDEKDFQTILKAFKKMKENTNLKLCACLGTLTEKAMNSLAAVGVERYNHNLETAKSFYKNIVSTHGYDERIKTINYAKNAKMEVCSGMIVGLGETMEQRIEHALLLRDLNVDAVPVNILNPVKGTKLENAKPLSPMEIIKTFAIIRFILPDKIIRYAGGREKNLRSLQPLGFLSGLNGMLIGNYLTTNGQSVNDDFNMLKDLELEYEGHHHHHH	not soluble
AAQTTAAVEDMSMGAEDAPVTIVEYASFTCPHCANFEKEVLTPLKRDYIDTGKVRFTFREVYFDRYGLWAAMVARCGGEMRYFGIADLIFEQQKEWVTNDPAQVATNLRKIGKTAGLDDAALDACMNDQAKAEAMVAAFQKNSQADDITATPSLIINGTKHSNMSYEELKKIIDAELAK	not soluble
MKNWIVGMVALVTMVPVMAATPWQKITHPVAGSPQSIGGFANGCVIGAQPLPLESADYQVMRSDQRRYFGHPDLLNFIHRLSAQTHQQQLGTVLIGDMAMPAGGRFSSGHASHQSGLDVDIWLQLPKQRWSQQQLLKPQPIDLVAVDGKRVIPALWQPQIESLIKLAAKDNDVTRIFVNPAIKKQLCLDAGADRQWLHKVRPWFAHRAHMHVRLRCPANSLECVDQDTPPPGDGCGAELESWFQPPPPSAKPGKTLPPPLPPSCQALLDNHFATE	not soluble
MPIAQLLELWKKIEVEPMEIETTEEDLNLDVGPATEDTAEEGKSDSAACKTKVAGSVEEEGVVKEIDISHHVKEGFEKADPSQFELLKVLGQGSYGKVFLVRKVKGSDAGQLYAMKVLKKATLKVRDRVRSKMERDILAEVNHPFIVKLHYAFQTEGKLYLILDFLRGGDLFTRLSKEVMFTEEDVKFYLAELALALDHLHSLGIIYRDLKPENILLDEEGHIKITDFGLSKEAIDHDKRAYSFCGTIEYMAPEVVNRRGHTQSADWWSFGVLMFEMLTGSLPFQGKDRKETMALILKAKLGMPQFLSGEAQSLLRALFKRNPCNRLGAGIDGVEEIKRHPFFVTIDWNTLYRKEIKPPFKPAVGRPEDTFHFDPEFTARTPTDSPGVPPSANAHHLFRGFSFVASSLIQEPSQQDLHKVPVHPIVQQLHGNNIHFTDGYEIKEDIGVGSYSVCKRCVHKATDTEYAVKIIDKSKRDPSEEIEILLRYGQHPNIITLKDVYDDGKFVYLVMELMRGGELLDRILRQRYFSEREASDVLCTITKTMDYLHSQGVVHRDLKPSNILYRDESGSPESIRVCDFGFAKQLRAGNGLLMTPCYTANFVAPEVLKRQGYDAACDIWSLGILLYTMLAGFTPFANGPDDTPEEILARIGSGKYALSGGNWDSISDAAKDVVSKMLHVDPHQRLTAMQVLKHPWVVNREYLSPNQLSRQDVHLVKGAMAATYFALNRTPQAPRLEPVLSSNLAQRRGMKRLTSTRL	soluble
ASDDELFSMLDQRFGGGEDLLMSGDNGMTEEKLRRYLKRTVTELDSVTARLREVEHRAGE	soluble
SLNAFDELVFAPMYVTSVDGRQAGVFHAHKGRRLIAAHRKAGTTPFVGASRVNNSITGFADTPALFPGGWITLIYNGDGGTGHAKYQPAPFNASDDVIALEPISKQATEPALLLIASMLTLQCVPKFGFGYKLTLHRLDRQKIMIPVLTNADGEQVVNWSGLTRHGKRLLNEAKTRARAVRELTSTAKPKLPELNYMPMFITDVFESMNAAGKWFDFAKACLSGKPFAPYIARSGGGNGVGSFVPHQGFAPPNAGNAITIGVSTSTVFYQPVPFYTSKEIQVLRHHKLTADSGLILVALLREQMGKFQWGNGASLERLKATRIMVPAMVGADGEDVVDWDGLSRYGRALRARVELAINAVL	not soluble
